In PMC5993284, “Peptide inhibitors of the anaphase promoting-complex that cause sensitivity to microtubule poison” (PLoS ONE, 2018):
“Also recorded” adds a separate entry of the source.

What was measured:
[1] = tested on: APC/C^Cdh1; test: APC/C^Cdh1 enzyme assay (ubiquitination of 35S-Pds1); assay type: biochemical, Saccharomyces cerevisiae; settings: 220 μM peptide; 35S-Pds1 substrate; time course 0-60 minutes; vs buffer; n = 3
Procedure: (§1) Full-length, radio-labeled protein purifications were preformed as previously described. ^35S-Pds1 was prepared in a 500 μL IVT/T (In Vitro Transcription/Translation) reaction (Promega, USA), which contained 400 μL rabbit reticulocyte lysate, 20 μL of L-^35S-methionine (PerkinElmer, USA), 10 μg of plasmid DNA, and the remaining volume as nuclease-free ddH2O as recommended by the manufacturer. The reaction mixture was incubated for 2 hours at room temperature and gently mixed every 30 minutes. The reaction was added to pre-equilibrated IgG Sepharose beads (GE Healthcare, USA) in Bio-spin disposable chromatography columns (Bio-Rad, USA) for binding for 2 hours at room temperature. To ensure efficient binding, the beads were re-suspended several times every 30 minutes. After binding, the beads were washed with 5 mL wash buffer, containing 200 mM 4-(2-hydroxyethyl)-1-piperazineethanesulfonic acid (HEPES) at pH 8.0, 150 mM NaCl, 10% (v/v) glycerol, and 1 mM dithiothreitol (DTT). The ^35S-Pds1 was cleaved from the beads using TEV (Tobacco Etch Virus) protease in 1x TEV buffer (Invitrogen, USA) for 2 hours at room temperature, and the mixture was re-suspended several times every 30 minutes to promote efficient cleavage. The elution was collected and concentrated by employing an Amicon Ultra filter column (Millipore, Ireland). The concentrated ^35S-Pds1 was collected in a new tube, and stored at -20 °C.
(§2) The production of Cdc20 or Cdh1 was prepared by IVT/T reactions, where 16 μL of rabbit reticulocyte lysate, 20 μM L-methionine, 0.4 μg of plasmid DNA, and a volume of nuclease-free ddH2O for a total volume of 20 μL. This freshly synthesized Cdc20 or Cdh1 protein was used directly in all APC/C assays after a 1-hour synthesis reaction at room temperature. The APC/C was purified for enzyme assays from 1 mL of TAP-tagged Cdc16 yeast extract (SCSY51) where extract was mixed with 50 μL 50:50 slurry magnetic beads (Invitrogen, Norway) for 2 hours at 4 °C. After incubation, the beads were washed with 3 mL APC/C wash buffer (200 mM of HEPES, 150 mM of NaCl and 10% (v/v) of glycerol). APC/C bound to IgG magnetic beads was used directly in the enzyme assays.
APC/C assays were performed by adding the reaction contents in following order: 4.3 μL of QAH buffer, 20 μL of rabbit reticulocyte lysate containing Cdc20 or Cdh1 with or without an additional volume of recombinant checkpoint protein(s) or inhibitor peptides, 2.4 μL ubiquitin aldehyde (Boston Biochem, USA), APC/C, 16 μL pre-charged E1/E2/ATP/ubiquitin mix, and 13.3 μL of ^35S-Pds1 with QAH buffer (20 mM HEPES at pH 8.0, 100 mM NaCl, and 1 mM MgCl2). […]

[2] = tested on: APC/C; test: Biotinylated peptide pull-down of purified APC/C, Western blot; assay type: binding, Saccharomyces cerevisiae; settings: 20 μM biotinylated peptide, purified yeast APC/C, 1 h at 4 °C, streptavidin/Avidin beads, n = 3
Procedure: For APC/C purification, the APC/C which contain Cdc16-TAP-tag was isolated from 2 mL arrested yeast lysate by 120 μL IgG sepharose 6 Fast Flow beads (GE Healthcare Life Sciences) and incubate for 2 h at 4 °C on a rotating wheel. Beads were collected washed with 5 mL of APC/C wash buffer (200 mM Hepes pH8.0, 150 mM NaCl, 10% glycerol). Beads were resuspended in 150 μL of APC/C wash buffer contain 17.6 units of AcTEV protease (Invitrogen, Carlsbad, CA) at 4°C for 3 h with pipetting every 20 minutes. The purified APC/C was collected in the flow-through.
For APC/C binding assays, 20 μM biotinylated peptides or 20 μM peptides only as a negative control were incubated with purified APC/C and 100 μL APC/C wash buffer which contains phosphatase inhibitors (200 mM Hepes pH 8.0, 150 mM NaCl, 10% glycerol, 10 mM NaF, 1 mM NaVO4, 5 mM Na-pyrophosphate, 10 mM 2-glycerol phosphate) for 1 h at 4 °C. The mixtures were applied to 120 μL streptavidin beads (Dynabeads MyOne Streptavidin T1, Invitrogen) for 30 min at 4 °C with gentle pipetting every 10 min. Beads were washed with 1 mL of PBST buffer (Phosphate buffer saline and 0.1% Tween 20) three times SDS-PAGE protein sample was added directly. For APC/C binding competition experiments, the biotinylated peptide and 10-fold excess non-biotinylated peptides were added to purified APC/C at same time.
Free D-biotin in 10% DMSO was used for the control binding assays. For pre-coating APC/C with biotin, a modified APC/C purification was performed. 2 mL yeast lysate was incubated with 120 μL IgG Sepharose beads and additional 20.4 μM free biotin or non-biotin solvent as a positive control was added and samples were incubated for 2 h at 4 °C on a rotating wheel. Purified pre-coated APC/C was then removed from the IgG Sepharose following the standard purification procedure. 20 μM biotinylated peptides or 20 μM peptides as a negative control were incubated with pre-coated APC/C and 100 μL APC/C wash buffer which contain phosphatase inhibitors for 1 h at 4 °C. In addition, 20 μM biotinylated peptide was added and incubated with pre-coated APC/C in a non-biotin containing solvent as positive control. Pre-coated APC/C binding procedures were same as above. For pre-coating streptavidin beads with biotin, streptavidin beads were washed in the presence of 10.2 nmol/mL D-biotin in PBST buffer or non-biotin solvent as a positive control before use. Pre-coated streptavidin beads were incubated with purified APC/C-peptide complexes with an extra […] biotin for 30 minutes with gentle pipetting every 10 min at 4 °C.
Proteins were separated in SDS-PAGE gels and then were transferred to PVDF membrane. Blocking was performed by incubating samples in 20 mL PBST with 5% milk at 4 °C. Rabbit anti-tap (Thermo, CAB1001) was used as primary antibodies at a 1:1000 dilution and incubated for 2 hours at RT. Anti-rabbit HRP (Jackson, USA) was then used as secondary antibody at 1:5000 dilution and incubate for 1 hr at RT. Chemiluminescence signals were detected using an ImageQuant LAS 4000 (GE Healthcare Bio-Sciences, USA). For cell cycle timing Western blots anti-MYC and anti-Actin antibodies were employed (ABCAM, UK).

[3] = target: T1, APC/C^Cdc20 (Saccharomyces cerevisiae, UniProt P16522+P53886); test: biochemical; assay type: biochemical; settings: 220 μM peptide; 35S-Pds1 substrate; time course 0-60 minutes; vs buffer only; n = 3
T1 construct: constructed within full-length Cdc20 by site-directed mutagenesis for analysis in vitro in the APC/C^Cdc20 assay; The APC/C was purified for enzyme assays from 1 mL of TAP-tagged Cdc16 yeast extract (SCSY51); made in house; host or cells: Cdc20: in vitro transcription/translation in rabbit reticulocyte lysate, used unpurified; APC/C: S. cerevisiae strain SCSY51 (Cdc16-TAP) extract, captured on IgG magnetic beads
Procedure: as §1, §2
(§3) APC/C assays were performed by adding the reaction contents in following order: 4.3 μL of QAH buffer, 20 μL of rabbit reticulocyte lysate containing Cdc20 or Cdh1 with or without an additional volume of recombinant checkpoint protein(s) or inhibitor peptides, 2.4 μL ubiquitin aldehyde (Boston Biochem, USA), APC/C, 16 μL pre-charged E1/E2/ATP/ubiquitin mix, and 13.3 μL of ^35S-Pds1 with QAH buffer (20 mM HEPES at pH 8.0, 100 mM NaCl, and 1 mM MgCl2). The E1/E2/ATP/ubiquitin mix were pre-charged by mixing 1 μL of E1 (Boston Biochem, USA), 1 μL of E2 (Boston Biochem, USA), 14.4 μL of ATP, 14.4 μL of […] (Boston Biochem, USA), and 17.2 μL of QAH buffer and incubated for 15 minutes at room temperature. Approximately 15 μL of samples were taken out at each time point, and the reaction was stopped by the addition of 2x protein sample buffer (125 mM Tris-HCl pH 6.8, 4% SDS, 20% glycerol, and 0.002% bromophenol blue, with 10% (final v/v) 2-mercaptoethanol added in fresh directly before use).
For inhibitor titration and time-course experiments, recombinant Bub3, Mad2, Mad3, and the Mad3-Bub3 complex were expressed and purified as previously described. […] For inhibition of APC/C the co-factor Cdc20 or Cdh1 was made fresh by IVT/T, and pure recombinant checkpoint proteins or inhibitor peptides were added to the IVT/T mixture and incubated for an additional hour at room temperature. In titrations, a dilution series of the checkpoint protein(s) were made before incubation with the Cdc20 co-factor. SDS-PAGE was performed using stand protocols (BioRad, USA).

[4] = tested on: APC/C; test: APC/C activity promoted by mutant Cdc20 alleles (Pds1 remaining); assay type: biochemical, Saccharomyces cerevisiae; settings: vs wild type Cdc20, n = 3
Procedure: as §2, §3
For APC/C activity assays dried-gels were exposed on a phosphor screen cassette to detect radio-labeled protein. The phosphor screen was scanned by a Typhoon phosphor-imager (GE Healthcare Bio-Sciences, USA), and radio-labeled protein bands in gels were quantified by employing the ImageQuant software (GE Healthcare Bio-Sciences, USA) according to the manufacturer’s protocols. Data were expressed as mean ± standard deviation, and was analyzed using Student’s t-test. Graphs were created using Kaliedograph 4.0 (Synergy Software, USA) and estimates of best-fit curves of a 4-parameter Hill equation were generated to obtain estimates for the median inhibitory concentrations (IC50) and Hill coefficients (Hc) using IgorPro 6.01 (Wavemetrics, USA).
By sequence alignment and amino acid homology alone, the budding yeast KILR-motif may be defined as 201-RILQ-204 (Fig 1A). However, the next residue, Tyrosine Y205 had previously been isolated in a genetic screen for spindle checkpoint by-pass alleles of Cdc20 [21], indicating this Y205 residue may be a target of the spindle checkpoint inhibition, and thus might also be a functional KILR-motif residue that contributes to APC/C activation. To clarify this possibility, we took the initial step to characterize several of the previously isolated spindle checkpoint by-pass mutant alleles of Cdc20 [21], and also Cdc20 mutants in the two highly conserved residues within the Mad2-binding motif, the aspartic acid at D197 of unknown function and the highly conserved Leucine L203 within the KILR-motif based on sequence alignment and homology. […]

hp31: 39 amino acid residue human peptide derived from human p31^comet amino acid residues 219–258 (RNCGEDWFRPKLNYRVPSRGHKLTVTLSCGRPSIRTTAWE; UniProt Q15013 219-258, looked up, fragment)
inhibition of APC/C^Cdh1 activity (in words) [1]: inhibited both budding yeast APC/C^Cdc20 (Fig 13B) and APC/C^Cdh1; also recorded: inhibits yeast APC/C^Cdh1 | binding to APC/C (in words) [2]: bound to budding yeast APC/C directly; also recorded: can pull-down budding yeast APC/C at 20 μM peptide | inhibition of APC/C^Cdc20 activity (in words) [3]: inhibited both budding yeast APC/C^Cdc20; also recorded: inhibits yeast APC/C^Cdc20

B1: Cdc20-L203A: mutant allele of Cdc20 in the conserved KILR-motif (protein, UniProt P26309 1-610, looked up, variant L203A)
APC/C activator protein CDC20: MPESSRDKGNAAISGNRSVLSIASPTKLNILSSDWSRNQGKVSKNSLKRSSSLNIRNSKRPSLQASANSIYSRPKITIGAPPLIRRDSSFFKDEFDAKKDKATFSAYSSRSYPTIGSESVVSQTSLSQPTTSREVDEQFTVAADRYIPILQGASQNKVDPETLHEALPPPNASPISHLRAQTKIVFKQNVAEACGLDMNKRIAQYMPEPPKCSSLRQKSYIMKKRTHYSYQQEQKIPDLIKLRKINTNPERILDAPGFQDDFYLNLLSWSKKNVLAIALDTALYLWNATTGDVSLLTDFENTTICSVTWSDDDCHISIGKEDGNTEIWDVETMSLIRTMRSGLGVRIGSLSWLDTLIATGSRSGEIQINDVRIKQHIVSTWAEHTGEVCGLSYKSDGLQLASGGNDNTVMIWDTRTSLPQFSKKTHTAAVKALSWCPYSPNILASGGGQTDKHIHFWNSITGARVGSINTGSQVSSLHWGQSHTSTNGGMMNKEIVATGGNPENAISVYNYETKFKVAEVVHAHEARICCSQLSPDGTTLATVGGDENLKFYKIFDPRCTGRSREDGLMDGMLGLIGKEGCRTNDKENRSKNSSEIHTRRPSSTSQYLIR
ability of mutant Cdc20 to promote APC/C activity (in words) [4]: displayed decreased APC/C activity; also recorded: had no APC/C activity; also recorded: consistently displayed a decrease in APC activity

B2: C-box2: C-box2 (Cdc20 130–196) containing the region between the C-box and the Mad2-binding motif (peptide, UniProt P26309 130-196, looked up, fragment)
chain: TTSREVDEQFTVAADRYIPILQGASQNKVDPETLHEALPPPNASPISHLRAQTKIVFKQNVAEACGL
inhibition of APC/C^Cdh1 activity (in words) [1]: also inhibited APC/C^Cdh1 activity; also recorded: A significant level of APC/C^Cdh1 inhibition was observed | inhibition of APC/C^Cdc20 activity (in words) [3]: observed to inhibit APC/C^Cdc20 activity; also recorded: A significant level of APC/C^Cdc20 inhibition was observed only in the presence of the C-box2 peptide
